PMC2646909

Biological target: SOD1 G93A (untagged) (human, UniProt P00441 2-154, G94A)
Experiment: competition

Sequence of SOD1 G93A (untagged) (P00441 2-154 G94A): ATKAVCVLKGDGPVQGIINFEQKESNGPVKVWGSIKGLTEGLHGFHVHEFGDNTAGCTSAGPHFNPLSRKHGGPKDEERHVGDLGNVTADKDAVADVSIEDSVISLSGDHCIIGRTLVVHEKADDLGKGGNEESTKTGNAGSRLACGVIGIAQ

CGGAGCCCAGCCCUCCCCAUGGAGCCAGCUCCCUCU (ssRNA) [control RNA (no AU-rich sequence)]
binding result: no binding
